{"source": "paper PMC6283471", "molecules": {"B1": {"name": "125I-CCL3, P10147 24-92 (ligand)", "chain": "SLAADTPTACCFSYTSRQIPQNFIADYFETSSQCSKPGVIFLTKRSRQVCADPSEEWVQKYVSDLELSA", "modifications": "ends and bridges not checked; also: 125I-labelled, site not given here"}}, "key": {"[1]": {"molecular_target": "CCR5 on HEK-R5 cells (HEK 293T cells stably expressing CCR5) (UniProt P51681)", "experiment": "radioligand binding"}, "[2]": {"molecular_target": "FLAG/SNAP-tagged wild-type (WT) CCR5, P51681", "experiment": "radioligand binding", "details": "remark: other sources report otherwise"}}, "data": [{"molecule": "gp120 Bx08-sCD4 complex (from UniProt P01730)", "values": [{"measurement": "Kd", "setting": "[1]", "value": 14.1, "unit": "nM"}]}, {"molecule": "B1", "values": [{"measurement": "Kd", "setting": "[2]", "value": 0.36, "unit": "nM"}]}]}
